{
  "source": "patent US11999794B2",
  "about": "“Human mesothelin chimeric antigen receptors and uses thereof” (Novartis AG, priority 2013, dated 2024)",
  "key": {"[1]": {"target": "T1, biotinylated mesothelin ECD (Homo sapiens, UniProt Q13421)", "T1 construct": "made in house; host or cells: HEK293F (transient)", "T1 sequence (Q13421 with tags, fused parts or gaps)": "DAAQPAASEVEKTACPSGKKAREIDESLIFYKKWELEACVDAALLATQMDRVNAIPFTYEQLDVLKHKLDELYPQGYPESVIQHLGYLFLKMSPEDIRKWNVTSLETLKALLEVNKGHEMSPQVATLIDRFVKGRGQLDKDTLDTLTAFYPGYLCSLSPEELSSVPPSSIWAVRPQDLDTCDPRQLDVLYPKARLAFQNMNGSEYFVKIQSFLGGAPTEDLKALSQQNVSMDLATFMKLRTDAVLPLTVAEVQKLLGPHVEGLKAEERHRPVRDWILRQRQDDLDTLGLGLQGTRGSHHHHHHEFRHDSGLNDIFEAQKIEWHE", "assay": "Surface plasmon resonance (Biacore T200) binding affinity of purified scFvs", "details": "for ka / kd: 1:1 Binding fit; for Kd: 1:1 Binding or Steady State Affinity fit", "experimental": "Binding affinity of purified scFvs was measured on a Biacore T200 system. Briefly, recombinant human biotinylated mesothelin ECD was immobilized on a streptavidin (SA) sensor chip surface at a density of 150 RU. Purified scFv was injected over the chip under constant flow rate at three-fold serial dilutions. Association and dissociation rates of the protein complex were monitored for 270 seconds and 400 seconds, respectively. Double referencing was performed against a blank immobilized flow cell and a buffer blank. Affinity was determined with a Langmuir 1:1 binding model when possible, for those scFVs where accurate fitting was not possible due to fast on and off rates, the steady state model was used."}, "[2]": {"assay": "Size exclusion chromatography (oligomerization state of expressed scFvs)", "type": "physicochemical", "details": "purified scFv", "experimental": "Size exclusion chromatography was performed to determine the oligomerization states of the expressed scFvs. 25 μg each was injected onto a TSKGel Super SW3000 4.6 mm×300 mm column (Tosoh Bioscience) heated to 35° C. The scFvs were eluted at 0.3 mL/min in 750 mM arginine, 1 mM EDTA, 20 mM sodium phosphate, 250 mM sodium chloride, pH 7.2; the UV absorbance was monitored at 280 nm."}, "[3]": {"target": "T1, biotinylated mesothelin ECD", "assay": "SPR relative epitope binning in comparison to SS1", "type": "binding", "details": "50 nM SS1 captured first, then scFv at 100 nM", "experimental": "In embodiments, the competition assay is an SPR-based assay. Briefly, the antigen, e.g., human mesothelin, is immobilized on a surface. Through a microflow system, a reference antibody is injected over the antigen layer. Upon binding of the reference antibody to the antigen, an increase in signal, typically expressed in response units (RU) is detected, e.g., reference signal. After a desired time, a test antibody is injected over the antigen layer. If the test antibody binds to a different region or epitope of the antigen, then an additional increase in signal is detected, e.g., a 5% or more, 10% or more, 15% or more, 20% or more, 25% or more, 30% or more, 35%, or more, 40% or more, 45% or more, 50% or more, 55% of more, 60% or more, 65% or more, 70% or more, 75% or more, 80% or more, 85% or more, 90% or more, or 95% or more increase in signal, e.g., RU, as compared to the highest signal detected upon binding of the reference antibody, e.g., the reference signal. If the test antibody binds to the same region or epitope of the antigen, then little or no increase in signal, e.g., RU, will be detected, e.g., less than 20%, less than 15%, less than 10%, less than 5%, less than 4%, less than 3%, less than 2%, or less than 1% increase in signal, e.g., RU, as compared to the highest signal detected upon binding of the reference antibody, e.g., the reference signal. When using this SPR-based competition assay, an antibody is said to compete with the reference antibody when less than 20%, less than 15%, less than 10%, less than 5%, less than 4%, less than 3%, less than 2%, or less than 1% increase in signal, e.g., RU, is detected when compared to the reference signal detected upon binding of the reference antibody to the antigen. An antibody is said to not compete, or compete poorly, with a reference antibody when a 5% or more, 10% or more, 15% or more, 20% or more, 25% or more, 30% or more, 35%, or more, 40% or more, 45% or more, 50% or more, 55% of more, 60% or more, 65% or more, 70% or more, 75% or more, 80% or more, 85% or more, 90% or more, or 95% or more increase in signal, e.g., RU, is detected when compared to the reference signal detected upon binding of the reference antibody to the antigen.\nTo determine the relative binding epitope of each of the scFvs in comparison to SS1, 50 nM SS1 was captured by biotinylated mesothelin ECD immobilized on a streptavidin sensor chip at a contact time of 180 seconds resulting in a relative density of 70 RU. Purified scFv at 100 nM (M5, M11, M12, M14, M16, M17, M21, or M23) was then immediately injected over the chip to minimize dissociation of the SS1/mesothelin complex. Binding of the secondary scFv was monitored for 270 seconds."}, "Ovcar3": {"tested_on": "Ovcar3", "assay": "Luciferase-based killing assay", "type": "cell-based, human", "experimental": "The ability for the CART-MSLN to target and kill tumor cells was also assessed in vitro. A luciferase-based assay was used, with tumor cell lines expressing luciferase reporters. Target cells (tumor cells) were plated at 20,000 targets/well. CART-MSLN were added at varying effector:target ratios, from 10:1, 5:1, 2.5:1, and 1:1. The cells were cultured for 20 hours, and the luminescence of each well was detected to determine the percentage of target cells killed. Luciferase-expressing Ovcar3 (ovarian cancer) and U87 mg (glioblastoma) cell lines were used as target cells."}, "Ovcar8": {"tested_on": "Ovcar8", "assay": "Ovcar8 xenograft model (Example 8)", "type": "in vivo, NSG mice", "details": "OVCAR8-mcherry; 10×10^6 T cells, about 4×10^6 CART cells", "experimental": "Anti-tumor activity of CART-MSLN was assessed in vivo in an Ovcar8 xenograft model. 10×10^6 Ovcar8 cells were implanted subcutaneously on day 0 in NSG mice. At day 14, 2×10^6 CART cells (CARTs expressing M5, M11, M17, M21, SS1, and CD19, or untransduced cells; 10×10^6 total T cells) in a 100 μl dose was administered intravenously. Mice and tumors were monitored for about 40 days after tumor cell implantation.\nA second in vivo xenograft experiment was performed to assess the anti-tumor activity of a second set of CART-MSLN cells. 10×10^6 OVCAR8-mcherry cells were injected into NSG mice. Once tumors were 150-250 mm^2, mice were randomized into treatment groups. CARTs expressing M12, M14, M16, M23, ss1, CD19, or untreated cells were injected at a dose of 10×10^6 T cells in 100 μl. About 40% of T cells were expressing CAR, and therefore at the administered dosage, about 4×10^6 CART cells were delivered to each animal."}},
  "note": "“Also recorded” adds a separate entry of the source.",
  "data": [
    {"molecule": "M17: human anti-mesothelin scFv SEQ ID NO: 55; full CAR SEQ ID NO: 79 (protein) scFv: EVQLVESGGGLVQPGRSLRLSCAASGFTFDDYAMHWVRQAPGKGLEWVSGISWNSGSTGYADSVKGRFTISRDNAKNSLYLQMNSLRAEDTALYYCAKDSSSWYGGGSAFDIWGQGTMVTVSSGGGGSGGGGSGGGGSSSELTQDPAVSVALGQTVRITCQGDSLRSYYASWYQQKPGQAPVLVIYGKNNRPSGIPDRFSGSSSGNTASLTITGAQAEDEADYYCNSRGSSGNHYVFGTGTKVTVL", "values": [
      {"measurement": "ka", "setting": "[1]", "result": 522000, "unit": "M⁻¹ s⁻¹"},
      {"measurement": "kd", "setting": "[1]", "result": 0.0145, "unit": "s⁻¹"},
      {"measurement": "Kd", "setting": "[1]", "result": 27.8, "unit": "nM"},
      {"measurement": "% Monomer (SEC)", "setting": "[2]", "result": ">98", "unit": "%"},
      {"measurement": "relative epitope binning against SS1 on human mesothelin", "setting": "[3]", "result": "Competitive binding; also recorded: competitive binders with SS1"},
      {"measurement": "killing of target tumor cells", "setting": "Ovcar3; E:T 10:1 to 1:1, 20 hours, FIG. 16A", "result": "performed similarly well in killing target tumor cells"},
      {"measurement": "specific killing within the panel of human meso CARs", "setting": "Ovcar3; FIGS. 17A and 17B", "result": "highest specific killing of Ovcar3 cells"}
    ]},
    {"molecule": "M23: human anti-mesothelin scFv SEQ ID NO: 61; CDRs in Tables 4 and 5 (protein) scFv: QVQLQQSGAEVKKPGASVKVSCKASGYTFTNYYMHWVRQAPGQGLEWMGIINPSGGYTTYAQKFQGRLTMTRDTSTSTVYMELSSLRSEDTAVYYCARIRSCGGDCYYFDNWGQGTLVTVSSGGGGSGGGGSGGGGSGGGGSDIQLTQSPSTLSASVGDRVTITCRASENVNIWLAWYQQKPGKAPKLLIYKSSSLASGVPSRFSGSGSGAEFTLTISSLQPDDFATYYCQQYQSYPLTFGGGTKVDIK", "values": [
      {"measurement": "Kd", "setting": "[1]", "result": 114, "unit": "nM"},
      {"measurement": "% Monomer (SEC)", "setting": "[2]", "result": 91, "unit": "%"},
      {"measurement": "relative epitope binning against SS1 on human mesothelin", "setting": "[3]", "result": "Competitive binding; also recorded: competitive binders with SS1"},
      {"measurement": "effect on tumor growth, second xenograft experiment", "setting": "Ovcar8", "result": "did not have an effect on tumor growth"}
    ]},
    {"molecule": "M12: human anti-mesothelin scFv SEQ ID NO: 50; full CAR SEQ ID NO: 74 (protein) scFv: QVQLVQSGAEVKKPGASVKVSCKASGYTFTGYYMHWVRQAPGQGLEWMGRINPNSGGTNYAQKFQGRVTMTTDTSTSTAYMELRSLRSDDTAVYYCARTTTSYAFDIWGQGTMVTVSSGGGGSGGGGSGGGGSGGGGSDIQLTQSPSTLSASVGDRVTITCRASQSISTWLAWYQQKPGKAPNLLIYKASTLESGVPSRFSGSGSGTEFTLTISSLQPDDFATYYCQQYNTYSPYTFGQGTKLEIK", "values": [
      {"measurement": "Kd", "setting": "[1]", "result": 307, "unit": "nM"},
      {"measurement": "% Monomer (SEC)", "setting": "[2]", "result": 70, "unit": "%"},
      {"measurement": "relative epitope binning against SS1 on human mesothelin", "setting": "[3]", "result": "Competitive binding; also recorded: competitive binders with SS1"},
      {"measurement": "effect on tumor growth, second xenograft experiment", "setting": "Ovcar8", "result": "did not have an effect on tumor growth"}
    ]},
    {"molecule": "M14: human anti-mesothelin scFv SEQ ID NO: 52; full CAR SEQ ID NO: 76 (protein) scFv: QVQLVQSGAEVRAPGASVKISCKASGFTFRGYYIHWVRQAPGQGLEWMGIINPSGGSRAYAQKFQGRVTMTRDTSTSTVYMELSSLRSDDTAMYYCARTASCGGDCYYLDYWGQGTLVTVSSGGGGSGGGGSGGGGSGGGGSDIQMTQSPPTLSASVGDRVTITCRASENVNIWLAWYQQKPGKAPKLLIYKSSSLASGVPSRFSGSGSGAEFTLTISSLQPDDFATYYCQQYQSYPLTFGGGTKVDIK", "values": [
      {"measurement": "ka", "setting": "[1]", "result": "2.75e+06", "unit": "M⁻¹ s⁻¹"},
      {"measurement": "kd", "setting": "[1]", "result": 0.00251, "unit": "s⁻¹"},
      {"measurement": "Kd", "setting": "[1]", "result": 0.9, "unit": "nM"},
      {"measurement": "% Monomer (SEC)", "setting": "[2]", "result": 74.5, "unit": "%"},
      {"measurement": "relative epitope binning against SS1 on human mesothelin", "setting": "[3]", "result": "Competitive binding; also recorded: competitive binders with SS1"},
      {"measurement": "effect on tumor growth, second xenograft experiment", "setting": "Ovcar8", "result": "did not have an effect on tumor growth"}
    ]},
    {"molecule": "M21: human anti-mesothelin scFv SEQ ID NO: 59; CDRs in Tables 4 and 5 (protein) scFv: QVQLVQSWAEVKKPGASVKVSCKASGYTFTSYYMHWVRQAPGQGLEWMGIINPSGGSTSYAQKFQGRVTMTRDTSTSTVYMELSNLRSEDTAVYYCARSPRVTTGYFDYWGQGTLVTVSSGGGGSGGGGSGGGGSGGGGSDIQLTQSPSTLSASVGDRVTITCRASQSISSWLAWYQQKPGKAPKLLIYKASSLESGVPSRFSGSGSGTEFTLTISSLQPDDFATYYCQQYSSYPLTFGGGTRLEIK", "values": [
      {"measurement": "Kd", "setting": "[1]", "result": 110, "unit": "nM"},
      {"measurement": "% Monomer (SEC)", "setting": "[2]", "result": ">98", "unit": "%"},
      {"measurement": "relative epitope binning against SS1 on human mesothelin", "setting": "[3]", "result": "Competitive binding; also recorded: competitive binders with SS1"}
    ]},
    {"molecule": "M16: human anti-mesothelin scFv SEQ ID NO: 54; full CAR SEQ ID NO: 78 (protein) scFv: EVQLVESGGGLVQPGRSLRLSCAASGFTFDDYAMHWVRQAPGKGLEWVSGISWNSGSTGYADSVKGRFTISRDNAKNSLYLQMNSLRAEDTALYYCAKDSSSWYGGGSAFDIWGQGTMVTVSSGGGGSGGGGSGGGGSSSELTQEPAVSVALGQTVRITCQGDSLRSYYASWYQQKPGQAPVLVIFGRSRRPSGIPDRFSGSSSGNTASLIITGAQAEDEADYYCNSRDNTANHYVFGTGTKLTVL", "values": [
      {"measurement": "ka", "setting": "[1]", "result": 174000, "unit": "M⁻¹ s⁻¹"},
      {"measurement": "kd", "setting": "[1]", "result": 0.00395, "unit": "s⁻¹"},
      {"measurement": "Kd", "setting": "[1]", "result": 22.7, "unit": "nM"},
      {"measurement": "% Monomer (SEC)", "setting": "[2]", "result": 94.5, "unit": "%"},
      {"measurement": "relative epitope binning against SS1 on human mesothelin", "setting": "[3]", "result": "Competitive binding; also recorded: competitive binders with SS1"},
      {"measurement": "effect on tumor growth, second xenograft experiment", "setting": "Ovcar8", "result": "did not have an effect on tumor growth"}
    ]}
  ]
}
